Measurements as given in PMC12922752 (Science Advances, 2026).

Experiments:
[1] = target: Hsp70 nucleotide-binding domain (Hsp70NBD); assay: ITC
[2] = target: Rpn1, human, recombinant full-length (human) (UniProt Q13200); assay: ITC
[3] = target: Rpn1, human, recombinant full-length (human, UniProt Q13200 1-908); assay: cross-linking
Chain of Rpn1, human, recombinant full-length (Q13200 whole entry): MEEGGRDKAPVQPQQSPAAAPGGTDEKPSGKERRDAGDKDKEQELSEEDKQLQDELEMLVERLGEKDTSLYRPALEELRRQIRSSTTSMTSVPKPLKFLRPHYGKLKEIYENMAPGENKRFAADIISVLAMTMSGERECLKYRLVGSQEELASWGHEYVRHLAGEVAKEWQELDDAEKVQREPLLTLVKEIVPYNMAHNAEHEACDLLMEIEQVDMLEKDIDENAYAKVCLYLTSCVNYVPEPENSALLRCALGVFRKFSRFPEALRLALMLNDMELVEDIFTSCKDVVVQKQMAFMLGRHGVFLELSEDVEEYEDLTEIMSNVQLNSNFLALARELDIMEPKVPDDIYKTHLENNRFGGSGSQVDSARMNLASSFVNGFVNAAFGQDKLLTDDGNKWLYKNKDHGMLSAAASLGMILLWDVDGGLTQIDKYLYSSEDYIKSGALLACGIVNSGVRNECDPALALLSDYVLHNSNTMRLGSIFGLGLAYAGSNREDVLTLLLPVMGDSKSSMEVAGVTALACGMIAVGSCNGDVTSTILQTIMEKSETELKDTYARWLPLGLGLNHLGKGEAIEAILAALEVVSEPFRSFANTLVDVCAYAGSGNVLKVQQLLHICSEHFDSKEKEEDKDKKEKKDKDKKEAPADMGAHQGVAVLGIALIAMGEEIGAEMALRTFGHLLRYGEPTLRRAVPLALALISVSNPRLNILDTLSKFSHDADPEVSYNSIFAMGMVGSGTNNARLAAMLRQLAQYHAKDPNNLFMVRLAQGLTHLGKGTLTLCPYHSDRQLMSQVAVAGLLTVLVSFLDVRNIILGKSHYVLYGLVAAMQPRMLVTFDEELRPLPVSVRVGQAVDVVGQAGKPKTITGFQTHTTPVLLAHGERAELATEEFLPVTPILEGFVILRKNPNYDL

Chain of Rpn1, human, recombinant full-length (human) (Q13200 whole entry): as above

| Kd [1] [nM] | Kd [2] [nM] | binding result [3] | Molecule |
| --- | --- | --- | --- |
| 50 | 500 | – | Bcl-2-associated anthanogene 1 (Bag1), full-length (natural protein) |
| – | – | binds | Rpt2 of the ATPase ring isolated from Saccharomyces cerevisiae (natural protein) MGQGVSSGQDKKKKKGSNQKPKYEPPVQSKFGRKKRKGGPATAEKLPNIYPSTRCKLKLLRMERIKDHLLLEEEFVSNSEILKPFEKKQEEEKKQLEEIRGNPLSIGTLEEIIDDDHAIVTSPTMPDYYVSILSFVDKELLEPGCSVLLHHKTMSIVGVLQDDADPMVSVMKMDKSPTESYSDIGGLESQIQEIKESVELPLTHPELYEEMGIKPPKGVILYGAPGTGKTLLAKAVANQTSATFLRIVGSELIQKYLGDGPRLCRQIFKVAGENAPSIVFIDEIDAIGTKRYDSNSGGEREIQRTMLELLNQLDGFDDRGDVKVIMATNKIETLDPALIRPGRIDRKILFENPDLSTKKKILGIHTSKMNLSEDVNLETLVTTKDDLSGADIQAMCTEAGLLALRERRMQVTAEDFKQAKERVMKNKVEENLEGLYL |
